Assay results: patent publication US20220265759

Target: T1, human chemokine receptor CCR10, P46092
T1 chain: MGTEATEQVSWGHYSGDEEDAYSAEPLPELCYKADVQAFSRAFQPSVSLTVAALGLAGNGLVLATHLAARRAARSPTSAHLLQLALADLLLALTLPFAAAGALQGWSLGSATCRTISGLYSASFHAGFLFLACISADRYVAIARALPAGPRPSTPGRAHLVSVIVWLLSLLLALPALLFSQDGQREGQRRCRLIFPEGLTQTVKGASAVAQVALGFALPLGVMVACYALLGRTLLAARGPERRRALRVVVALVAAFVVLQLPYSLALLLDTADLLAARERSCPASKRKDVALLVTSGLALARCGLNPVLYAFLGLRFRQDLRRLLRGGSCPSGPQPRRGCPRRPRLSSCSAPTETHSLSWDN

B1: human endothelial nitric oxide synthase (eNOS) (protein)
chain: GNLKSVAQEPGPPCGLGLGLGLGLCGKQGPATPAPEPSRAPASLLPPAPEHSPPSSPLTQPPEGPKFPRVKNWEVGSITYDTLSAQAQQDGPCTPRRCLGSLVFPRKLQGRPSPGPPAPEQLLSQARDFINQYYSSIKRSGSQAHEQRLQEVEAEVAATGTYQLRESELVFGAKQAWRNAPRCVGRIQWGKLQVFDARDCRSAQEMFTYICNHIKYATNRGNLRSAITVFPQRCPGRGDFRIWNSQLVRYAGYRQQDGSVRGDPANVEITELCIQHGWTPGNGRFDVLPLLLQAPDDPPELFLLPPELVLEVPLEHPTLEWFAALGLRWYALPAVSNMLLEIGGLEFPAAPFSGWYMSTEIGTRNLCDPHRYNILEDVAVCMDLDTRTTSSLWKDKAAVEINVAVLHSYQLAKVTIVDHHAATASFMKHLENEQKARGGCPADWAWIVPPISGSLTPVFHQEMVNYFLSPAFRYQPDPWKGSAAKGTGITRKKTFKEVANAVKISASLMGTVMAKRVKATILYGSETGRAQSYAQQLGRLFRKAFDPRVLCMDEYDVVSLEHETLVLVVTSTFGNGDPPENGESFAAALMEMSGPYNSSPRPEQHKSYKIRFNSISCSDPLVSSWRRKRKESSNTDSAGALGTLRFCVFGLGSRAYPHFCAFARAVDTRLEELGGERLLQLGQGDELCGQEEAFRGWAQAAFQAACETFCVGEDAKAAARDIFSPKRSWKRQRYRLSAQAEGLQLLPGLIHVHRRKMFQATIRSVENLQSSKSTRATILVRLDTGGQEGLQYQPGDHIGVCPPNRPGLVEALLSRVEDPPAPTEPVAVEQLEKGSPGGPPPGWVRDPRLPPCTLRQALTFFLDITSPPSPQLLRLLSTLAEEPREQQELEALSQDPRRYEEWKWFRCPTLLEVLEQFPSVALPAPLLLTQLPLLQPRYYSVSSAPSTHPGEIHLTVAVLAYRTQDGLGPLHYGVCSTWLSQLKPGDPVPCFIRGAPSFRLPPDPSLPCILVGPGTGIAPFRGFWQERLHDIESKGLQPTPMTLVFGCRCSQLDHLYRDEVQNAQQRGVFGRVLTAFSREPDNPKTYVQDILRTELAAEVHRVLCLERGHMFVCGDVTMATNVLQTVQRILATEGDMELDEAGDVIGVLRDQQRYHEDIFGLTLRTQEVTSRIRTQSFSLQERQLRGAVPWAFDPPGSDTNSP
- eNOS phosphorylation (Ser1177) in presence of Myr-CBD7: eNOS phosphorylation (Ser1177) was significantly enhanced in presence of Myr-CBD7
- phosphorylation of eNOS after CCR10 siRNA knockdown (western blot, A23187 stimulation): phosphorylation of eNOS was significantly increased compared to control siRNA, even at 0 minutes
